Square brackets hold non-standard residues; d marks the D form. Ends that are not written are not given here. Tyr(3-NO2) = N[C@@H](Cc1ccc(O)c([N+](=O)[O-])c1)C(=O)O; 2Abz = Nc1ccccc1C(=O)O
Key:
Format in all cases: biochemical
Kallikrein-3 = Kallikrein-3 (Homo sapiens, UniProt P07288); experiment: FRET peptide cleavage efficiency with Kallikrein-3; conditions: peptide 200 uM, Kallikrein-3 2 μg/ml, 37° C., pH 8
matriptase = target: T1, matriptase (Homo sapiens, UniProt Q9Y5Y6); experiment: FRET peptide cleavage efficiency with matriptase; conditions: 200 uM linker, 1 ug/ml protease, 37° C., buffer B pH 9.0
T1 construct: purchased R&D Systems 3946-SEB
T1 sequence (Q9Y5Y6 615-855 limits assumed): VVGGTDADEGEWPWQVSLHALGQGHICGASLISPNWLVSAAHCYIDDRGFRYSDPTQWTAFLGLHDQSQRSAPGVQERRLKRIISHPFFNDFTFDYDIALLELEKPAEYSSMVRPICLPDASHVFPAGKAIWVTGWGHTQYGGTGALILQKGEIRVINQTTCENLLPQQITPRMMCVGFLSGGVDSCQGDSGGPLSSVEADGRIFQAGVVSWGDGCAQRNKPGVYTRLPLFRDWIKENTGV

MMP-2 = target: T2, MMP-2 (Homo sapiens, UniProt P08253); experiment: FRET peptide cleavage efficiency with MMP-2; conditions: 200 uM linker, 1 ug/ml protease, 37° C., buffer C pH 7.5
T2 construct: purchased SIGMA PF023
T2 sequence (P08253 110-660): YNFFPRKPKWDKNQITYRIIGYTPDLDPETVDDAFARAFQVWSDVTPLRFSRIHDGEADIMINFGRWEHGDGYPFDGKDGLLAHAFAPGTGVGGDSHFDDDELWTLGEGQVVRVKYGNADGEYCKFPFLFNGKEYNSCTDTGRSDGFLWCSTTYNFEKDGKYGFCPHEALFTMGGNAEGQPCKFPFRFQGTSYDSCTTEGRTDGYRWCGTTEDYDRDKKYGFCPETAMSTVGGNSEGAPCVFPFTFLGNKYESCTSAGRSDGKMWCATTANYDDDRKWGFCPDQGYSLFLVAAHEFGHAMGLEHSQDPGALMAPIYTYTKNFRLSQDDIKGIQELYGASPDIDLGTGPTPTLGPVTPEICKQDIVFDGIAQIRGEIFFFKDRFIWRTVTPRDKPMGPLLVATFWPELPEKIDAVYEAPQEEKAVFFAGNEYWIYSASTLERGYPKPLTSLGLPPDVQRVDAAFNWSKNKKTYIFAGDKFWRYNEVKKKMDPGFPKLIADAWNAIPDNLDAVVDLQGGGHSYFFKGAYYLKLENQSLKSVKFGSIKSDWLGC

uPA = uPA (Homo sapiens, UniProt P00749); experiment: FRET peptide cleavage efficiency with uPA; conditions: 200 uM linker, 1 ug/ml protease, 37° C., buffer A pH 8.5

Sequence of Kallikrein-3 (P07288 25-261, species assumed): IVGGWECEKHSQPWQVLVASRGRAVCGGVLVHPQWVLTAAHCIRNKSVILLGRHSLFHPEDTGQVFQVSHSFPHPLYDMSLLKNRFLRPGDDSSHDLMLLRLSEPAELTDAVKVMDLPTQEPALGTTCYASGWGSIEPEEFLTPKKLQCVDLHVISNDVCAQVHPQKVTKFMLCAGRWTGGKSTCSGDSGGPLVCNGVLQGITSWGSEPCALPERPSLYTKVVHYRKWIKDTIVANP

Row | Substance | Kallikrein-3 t = 1 h % cleavage (Kallikrein-3) [%] | Kallikrein-3 t = 3 h % cleavage (Kallikrein-3) [%] | Kallikrein-3 t = 6 h % cleavage (Kallikrein-3) [%] | Kallikrein-3 t = 8 h % cleavage (Kallikrein-3) [%] | % cleavage Matriptase t = 15 min (matriptase) [%] | % cleavage Matriptase t = 60 min (matriptase) [%] | % cleavage Matriptase t = 120 min (matriptase) [%] | % cleavage MMP-2 t = 15 min (MMP-2) [%] | % cleavage MMP-2 t = 60 min (MMP-2) [%] | % cleavage MMP-2 t = 120 min (MMP-2) [%] | % cleavage uPA t = 15 min (uPA) [%] | % cleavage uPA t = 60 min (uPA) [%] | % cleavage uPA t = 120 min (uPA) [%]
1 | RRLNYSL ([2Abz]RRLNYSL[Tyr(3-NO2)]-NH2) [LNK074] | 23 | 59 | 87 | 96 | 2 | 6 | 10 | 1 | 5 | 9 | 0 | 0 | 0
2 | ISQYSSAT ([2Abz]ISQYSSAT[Tyr(3-NO2)]-NH2) [LNK070] | 0 | 0 | 0 | 0 | 0 | 0 | 0 | 0 | 0 | 0 | 0 | 0 | 0
3 | KLYSSKQ ([2Abz]KLYSSKQ[Tyr(3-NO2)]-NH2) [LNK071] | 23 | 55 | 83 | 94 | 0 | 0 | 0 | 1 | 13 | 28 | 0 | 0 | 0
4 | SQLYSSPG ([2Abz]SQLYSSPG[Tyr(3-NO2)]-NH2) [LNK068] | 31 | 70 | 94 | 100 | 0 | 0 | 0 | 2 | 9 | 18 |  |  | 
5 | SQYQSSPG ([2Abz]SQYQSSPG[Tyr(3-NO2)]-NH2) [LNK067] | 8 | 22 | 41 | 51 | 0 | 0 | 0 | 1 | 5 | 10 |  |  | 
6 | HSSKLQL ([2Abz]HSSKLQL[Tyr(3-NO2)]-NH2) [LNK078] | 10 | 34 | 64 | 79 | 0 | 0 | 0 | 3 | 6 | 8 | 0 | 0 | 0

From patent publication US20240400614A1, “CLEAVABLE PEPTIDES AND METHODS OF USE THEREOF” (Bright Peak Therapeutics AG, priority 2023, published 2024)
